From US20020137087, “2'-fluoropyrimidine anti-calf intestinal phosphatase nucleic acid ligands” (published 2002)

Experiments:
[1] = biological target: T1, Calf intestinal alkaline phosphatase (CIP) (UniProt P19111 P19111:20-506); assay: streptavidin plate chemiluminescence assay, SHMCK+ buffer, 37 C; details: tags: Boehringer Mannheim (Indianapolis, Ind.), 10 mg/ml; chain copies: 2
Method: (§1) The affinity of the initial random library and round 8 affinity enriched pool of Example 1 was performed by a plate-based assay using RNA-transcripts biotinylated on the 5′-terminus. Briefly, opaque white 96-well Lumino plates were coated with streptavidin (10 to 20 μg/well). Biotinylated RNA obtained either from the round 8 pool or the random library were added separately to individual wells of a 96-well microtiter plate (approximately 30 fMols RNA per well). After incubating for 1 hour at room temperature, wells were washed three times with […] of SHMCK+buffer. Varying concentrations of CIP, in SHMCK+buffer, were added to the wells and allowed to incubate for 1 hour at 37° C. Wells were washed four times with 200 μl SHMCK+buffer followed by the addition of a 100 μl solution consisting of 0.1 M diethanolamine pH 10, 10% volume/volume Sapphire enhancer solution (Tropix Inc., Bedford, Mass.), […] CSPD (Tropix, Inc.), 1 mM MgCl₂, and 0.02% sodium azide. After a 30 minute incubation, chemiluminescence was measured using a Berthold (Nashua, N.H.) LB 96P luminometer. Luminescence levels were integrated over one second and data were fit to a sigmoidal dose-response curve (variable slope), Y=Bottom+[(Top−Bottom)/1+10^{(Log EC50-X)(Hillslope)}] using GraphPad Prism version 2.01 (GraphPad Software; San Diego, Calif.). Each replicate was considered individually and convergence was obtained when two consecutive iterations varied the sum of squares (relative distance of the points from the curve, 1/Y²) by less than 0.01%.

[2] = biological target: T1, Calf intestinal alkaline phosphatase …; assay: streptavidin plate chemiluminescence assay, SHMCK+ buffer pH 7.35, 1 mM CaCl2, 1 mM MgCl2, 37 C; details: tags: Boehringer Mannheim (Indianapolis, Ind.), 10 mg/ml; chain copies: 2
Method: as §1, with “Each replicate was considered individually and convergence was obtained when two consecutive iterations varied the sum of squares (relative distance of the points from the curve, 1/Y²) by less than 0.01%.” left out

T1 sequence (P19111 20-506, one chain of several): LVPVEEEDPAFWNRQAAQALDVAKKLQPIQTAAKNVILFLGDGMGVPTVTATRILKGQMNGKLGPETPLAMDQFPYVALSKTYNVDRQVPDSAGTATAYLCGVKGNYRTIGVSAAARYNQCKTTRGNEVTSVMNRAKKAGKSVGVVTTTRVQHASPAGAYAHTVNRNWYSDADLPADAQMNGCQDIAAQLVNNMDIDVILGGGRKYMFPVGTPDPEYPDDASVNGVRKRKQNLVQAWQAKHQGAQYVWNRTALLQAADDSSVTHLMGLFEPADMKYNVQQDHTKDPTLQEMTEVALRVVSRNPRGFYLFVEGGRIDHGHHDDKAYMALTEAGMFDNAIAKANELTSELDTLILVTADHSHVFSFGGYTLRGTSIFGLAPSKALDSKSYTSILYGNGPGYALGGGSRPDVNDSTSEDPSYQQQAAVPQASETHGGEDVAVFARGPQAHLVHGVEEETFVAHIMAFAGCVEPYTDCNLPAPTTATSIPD

Row | Binder | Kd [1] [nM] | Kd [2] [nM]
1 | DD-172-2-9 (group A) (ssRNA, all pyrimidines 2'-F) RNA: GGGAGACAAGAAUAAACGCUCAACACAAAACAAAAUAACCUUAGCCUCGGUGCUCUACGCAAUUCGACAGGAGGCUCACAACAGGC | 7.8 | –
2 | DD-172-2-4 (group B) (ssRNA, all pyrimidines 2'-F) RNA: GGGAGACAAGAAUAAACGCUCAACGCCAGGCCCUUAUCAAGCGCGGAACGCACGACCCGUCUUUCGACAGGAGGCUCACAACAGGC | – | 0.13
3 | DD-172-2-20 (group B) (ssRNA, all pyrimidines 2'-F) RNA: GGGAGACAAGAAUAAACGCUCAACGCCAGGCCCUUAUCAAGCGCGGAACGCAUGACCCGUCUUUCGACAGGAGGCUCACAACAGGC | 0.26 | –
4 | DD-172-2-17 (group A) (ssRNA, all pyrimidines 2'-F) RNA: GGGAGACAAGAAUAACGCUCAAACACAAAACAAAAUAACUUGGCCUCGGUGCUCUACGCAAUUCGACAGGAGGCUCACAACAGGC | 7.2 | –
